Results reported in PMC6525047.

T1: RIPLET (human), Q8IUD6
T1 chain: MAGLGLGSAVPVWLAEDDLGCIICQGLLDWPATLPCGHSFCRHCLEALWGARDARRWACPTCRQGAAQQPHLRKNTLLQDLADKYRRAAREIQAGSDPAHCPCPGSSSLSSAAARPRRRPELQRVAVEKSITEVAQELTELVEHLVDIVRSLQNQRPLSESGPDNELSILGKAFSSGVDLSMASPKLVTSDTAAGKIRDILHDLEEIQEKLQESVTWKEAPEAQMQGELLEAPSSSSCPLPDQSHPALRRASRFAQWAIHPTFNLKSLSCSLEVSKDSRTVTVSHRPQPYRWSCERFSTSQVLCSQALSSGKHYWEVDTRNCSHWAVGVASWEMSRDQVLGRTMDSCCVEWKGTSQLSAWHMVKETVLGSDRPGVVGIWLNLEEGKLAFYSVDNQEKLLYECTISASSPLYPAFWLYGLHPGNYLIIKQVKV

T2: RIG-IdeltaN;RIPLET (human;human, UniProt O95786;Q8IUD6 230-925;1-432, |)
T2 sequence 1: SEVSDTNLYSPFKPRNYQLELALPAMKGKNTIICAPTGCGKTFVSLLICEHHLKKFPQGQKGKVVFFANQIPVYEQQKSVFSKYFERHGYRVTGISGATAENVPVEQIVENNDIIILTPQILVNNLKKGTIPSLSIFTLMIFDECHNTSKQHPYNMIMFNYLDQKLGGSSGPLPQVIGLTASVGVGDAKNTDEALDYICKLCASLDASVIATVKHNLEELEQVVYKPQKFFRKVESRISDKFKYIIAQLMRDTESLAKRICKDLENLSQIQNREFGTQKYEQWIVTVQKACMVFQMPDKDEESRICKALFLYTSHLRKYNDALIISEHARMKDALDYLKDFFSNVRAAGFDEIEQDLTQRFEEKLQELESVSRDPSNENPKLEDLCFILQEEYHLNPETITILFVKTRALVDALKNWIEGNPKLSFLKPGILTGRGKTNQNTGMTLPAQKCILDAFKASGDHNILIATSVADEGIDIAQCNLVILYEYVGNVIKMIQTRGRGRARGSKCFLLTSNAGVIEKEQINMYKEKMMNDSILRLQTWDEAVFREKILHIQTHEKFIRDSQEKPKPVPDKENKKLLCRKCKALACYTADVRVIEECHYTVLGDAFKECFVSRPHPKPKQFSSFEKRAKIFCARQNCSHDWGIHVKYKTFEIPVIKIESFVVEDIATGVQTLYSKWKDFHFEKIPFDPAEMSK
T2 sequence 2: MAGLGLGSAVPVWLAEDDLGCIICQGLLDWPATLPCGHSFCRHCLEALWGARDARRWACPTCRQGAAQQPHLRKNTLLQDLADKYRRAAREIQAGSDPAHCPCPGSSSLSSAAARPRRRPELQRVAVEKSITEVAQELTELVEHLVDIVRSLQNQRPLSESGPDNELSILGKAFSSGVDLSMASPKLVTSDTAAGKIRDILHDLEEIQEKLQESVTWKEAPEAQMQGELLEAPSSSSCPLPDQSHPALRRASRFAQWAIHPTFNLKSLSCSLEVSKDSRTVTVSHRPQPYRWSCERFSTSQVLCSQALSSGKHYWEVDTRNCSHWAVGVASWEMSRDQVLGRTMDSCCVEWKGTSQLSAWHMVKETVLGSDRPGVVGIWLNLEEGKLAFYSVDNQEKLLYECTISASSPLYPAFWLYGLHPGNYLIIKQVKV


Key:
RIPLET (human), Q8IUD6 = target: T1, RIPLET (human), Q8IUD6; assay: SEC-MALS; conditions: remark: other sources report otherwise
RIG-IdeltaN;RIPLET = target: T2, RIG-IdeltaN;RIPLET; assay: EMSA

Row | Binder | stoichiometry N (RIPLET (human), Q8IUD6) | binding result (RIG-IdeltaN;RIPLET)
1 | RIPLET, Q8IUD6 1-432 (enzyme) MAGLGLGSAVPVWLAEDDLGCIICQGLLDWPATLPCGHSFCRHCLEALWGARDARRWACPTCRQGAAQQPHLRKNTLLQDLADKYRRAAREIQAGSDPAHCPCPGSSSLSSAAARPRRRPELQRVAVEKSITEVAQELTELVEHLVDIVRSLQNQRPLSESGPDNELSILGKAFSSGVDLSMASPKLVTSDTAAGKIRDILHDLEEIQEKLQESVTWKEAPEAQMQGELLEAPSSSSCPLPDQSHPALRRASRFAQWAIHPTFNLKSLSCSLEVSKDSRTVTVSHRPQPYRWSCERFSTSQVLCSQALSSGKHYWEVDTRNCSHWAVGVASWEMSRDQVLGRTMDSCCVEWKGTSQLSAWHMVKETVLGSDRPGVVGIWLNLEEGKLAFYSVDNQEKLLYECTISASSPLYPAFWLYGLHPGNYLIIKQVKV | 2 | –
2 | 21 bp dsRNA (dsRNA, 5'ppp) RNA 1: GAGUCACGACGUUGUAAAAAA RNA 2: UUUUUUACAACGUCGUGACUC | – | binds
